Data from the Immune Epitope Database (IEDB).

Tests used:
HLA-B*44:03 = assay: IEDB peptide-MHC binding, purified MHC/competitive/radioactivity; filed as Kd, often an IC50 or EC50 that approximates it; ≥ and ≤ were set here for values at or beyond the usual limits of such assays
HLA-A*29:02 = assay: as above
HLA-A*30:02 = assay: as above
HLA-A*26:01 = assay: as above
HLA-A*24:02 [1] = assay: as above
HLA-A*01:01 = assay: as above
HLA-A*23:01 = assay: as above
HLA-A*02:01 = assay: IEDB peptide-MHC binding, purified MHC/competitive/fluorescence; ≥ and ≤ were set here for values at or beyond the usual limits of such assays
HLA-A*24:02 [2] = assay: as above
HLA-B*44:02 = assay: IEDB peptide-MHC binding, purified MHC/competitive/radioactivity; filed as Kd, often an IC50 or EC50 that approximates it; ≥ and ≤ were set here for values at or beyond the usual limits of such assays
HLA-B*53:01 = assay: as above
HLA-A*31:01 = assay: as above
HLA-A*33:01 = assay: as above
HLA-A*68:01 = assay: as above
HLA-A*11:01 = assay: as above
HLA-A*03:01 = assay: as above; settings: source organism: Triticum aestivum
HLA-A*32:01 = assay: as above; settings: source organism: Dengue virus 2 Jamaica/1409/1983
[3] = source organism: Dengue virus 3 Martinique/1243/1999
[4] = source organism: Triticum aestivum
[5] = source organism: Vaccinia virus WR
[6] = source organism: Dengue virus 4 Philippines/H241/1956
[7] = source organism: Zaire ebolavirus
[8] = source organism: Dengue virus 1 Brazil/97-11/1997
[9] = source organism: SARS coronavirus Tor2
[10] = source organism: Mammarenavirus guanaritoense
[11] = source organism: Lymphocytic choriomeningitis virus (strain Armstrong)
[12] = source organism: Mammarenavirus mopeiaense

NELNYILWE
Kd (HLA-B*44:03; [3]): 270 nM

QFPGQQQPF
Kd (HLA-A*29:02; [4]): 1530 nM
Kd (HLA-A*30:02; [4]): 185 nM
Kd (HLA-A*26:01; [4]): ≥ 25900 nM
Kd (HLA-A*24:02 [1]; [4]): 676 nM
Kd (HLA-A*01:01; [4]): ≥ 48900 nM
Kd (HLA-A*23:01; [4]): 19800 nM

KFMSNGEHV
IC50 (HLA-A*02:01; [5]): 27700 nM
IC50 (HLA-A*24:02 [2]; [5]): 4440 nM

EEHKETWHY
Kd (HLA-B*44:02; [6]): 203 nM
Kd (HLA-B*44:03; [6]): 16.9 nM

VNNLEHGLF
IC50 (HLA-A*24:02 [2]; [7]): 25400 nM

AFHKDGAFF
IC50 (HLA-A*24:02 [2]; source organism: Sudan ebolavirus): 9670 nM

NEGIMAIGI
Kd (HLA-B*44:02; [8]): 18.8 nM
Kd (HLA-B*44:03; [8]): 109 nM

SHLTTLATI
IC50 (HLA-A*02:01; [7]): 13200 nM
IC50 (HLA-A*24:02 [2]; [7]): 402 nM

GYVTHGFNL
Kd (HLA-A*29:02; [9]): 839 nM
Kd (HLA-A*30:02; [9]): ≥ 78900 nM
Kd (HLA-A*26:01; [9]): ≥ 77900 nM
Kd (HLA-A*24:02 [1]; [9]): 1210 nM
Kd (HLA-A*01:01; [9]): ≥ 78100 nM
Kd (HLA-A*23:01; [9]): 234 nM

TPEGIIPSMF
Kd (HLA-B*53:01; source organism: Dengue virus 2 Jamaica/1409/1983): 417 nM

LALREFKEF
Kd (HLA-B*53:01; [8]): 1730 nM

IRHLFGNYI
Kd (HLA-A*29:02; [10]): 571 nM
Kd (HLA-A*30:02; [10]): ≥ 24100 nM
Kd (HLA-A*26:01; [10]): ≥ 77900 nM
Kd (HLA-A*24:02 [1]; [10]): ≥ 43700 nM
Kd (HLA-A*01:01; [10]): ≥ 22200 nM
Kd (HLA-A*23:01; [10]): ≥ 22100 nM

ADAGFMKQY
Kd (HLA-A*29:02; [9]): 15300 nM
Kd (HLA-A*30:02; [9]): ≥ 46200 nM
Kd (HLA-A*26:01; [9]): ≥ 81500 nM
Kd (HLA-A*24:02 [1]; [9]): ≥ 77600 nM
Kd (HLA-A*01:01; [9]): ≥ 87700 nM
Kd (HLA-A*23:01; [9]): ≥ 77800 nM

ATSRTLSYY
Kd (HLA-A*31:01; [9]): 3880 nM
Kd (HLA-A*29:02; [9]): 12 nM
Kd (HLA-A*30:02; [9]): 1.03 nM
Kd (HLA-A*33:01; [9]): ≥ 77700 nM
Kd (HLA-A*26:01; [9]): 1940 nM
Kd (HLA-A*68:01; [9]): 1200 nM
Kd (HLA-A*11:01; [9]): 28.5 nM
Kd (HLA-A*24:02 [1]; [9]): ≥ 35700 nM
Kd (HLA-A*01:01; [9]): 4.81 nM
Kd (HLA-A*23:01; [9]): ≥ 77800 nM

VSFQQPLQQY
Kd (HLA-A*31:01; [4]): ≥ 70000 nM
Kd (HLA-A*29:02; [4]): 2840 nM
Kd (HLA-A*03:01): 2340 nM
Kd (HLA-A*30:02; [4]): 6090 nM
Kd (HLA-A*33:01; [4]): ≥ 70000 nM
Kd (HLA-A*26:01; [4]): ≥ 43000 nM
Kd (HLA-A*68:01; [4]): ≥ 70200 nM
Kd (HLA-A*11:01; [4]): 138 nM
Kd (HLA-A*24:02 [1]; [4]): ≥ 70300 nM
Kd (HLA-A*01:01; [4]): 38.5 nM
Kd (HLA-A*23:01; [4]): ≥ 42400 nM

LYDANYFVCW
Kd (HLA-A*29:02; [9]): 1440 nM
Kd (HLA-A*30:02; [9]): 13400 nM
Kd (HLA-A*26:01; [9]): 9640 nM
Kd (HLA-A*24:02 [1]; [9]): 55.4 nM
Kd (HLA-A*01:01; [9]): 1130 nM
Kd (HLA-A*23:01; [9]): 24.5 nM

QTQSRPIQN
IC50 (HLA-A*24:02 [2]; [7]): ≥ 128000 nM

GSAKLRWFVE
Kd (HLA-A*32:01): ≥ 22200 nM

CFANKHAGF
Kd (HLA-A*29:02; [9]): 28.8 nM
Kd (HLA-A*30:02; [9]): 6620 nM
Kd (HLA-A*26:01; [9]): 11800 nM
Kd (HLA-A*24:02 [1]; [9]): 27.4 nM
Kd (HLA-A*01:01; [9]): ≥ 78100 nM
Kd (HLA-A*23:01; [9]): 105 nM

CYSSVNDRLV
Kd (HLA-A*29:02; [11]): 13000 nM
Kd (HLA-A*30:02; [11]): 3960 nM
Kd (HLA-A*26:01; [11]): ≥ 69700 nM
Kd (HLA-A*24:02 [1]; [11]): 1130 nM
Kd (HLA-A*01:01; [11]): 11100 nM
Kd (HLA-A*23:01; [11]): 1870 nM

YIAVNDKALY
Kd (HLA-A*29:02; [9]): 8.81 nM
Kd (HLA-A*30:02; [9]): 141 nM
Kd (HLA-A*26:01; [9]): 2600 nM
Kd (HLA-A*24:02 [1]; [9]): ≥ 70300 nM
Kd (HLA-A*01:01; [9]): 12.9 nM
Kd (HLA-A*23:01; [9]): ≥ 55000 nM

IKIPTHRHI
Kd (HLA-A*29:02; [12]): ≥ 78900 nM
Kd (HLA-A*30:02; [12]): ≥ 76900 nM
Kd (HLA-A*26:01; [12]): ≥ 77900 nM
Kd (HLA-A*24:02 [1]; [12]): ≥ 57100 nM
Kd (HLA-A*01:01; [12]): 16600 nM
Kd (HLA-A*23:01; [12]): ≥ 24800 nM

CVIASSGMLW
Kd (HLA-B*53:01; [3]): 22.2 nM
Kd (HLA-A*26:01; [3]): 1220 nM
